Assay [1] concerns the target T1, Arabidopsis cryptochrome 2 (CRY2) (Arabidopsis, UniProt Q96524 1-612).
T1 construct: also called AT1G04400
The assay is described as follows: yeast β-gal assay, dark or blue light (FIG. 5H). The procedure:
The H293 cells were transfected with vector expressing CRY2 only (CRY2), or together with vector expression Myc-BIC1 (CRY2+BIC1) and cultured in dark for 24 hours. The cells were cracked and divided into equally 12 tubes, then treated with blue light (40 μmol m⁻² s⁻¹) for the duration indicated. The sample were analyzed by western blot using anti-CRY2 antibody and anti-Myc antibody sequentially. (FIG. 5B) β-Gal assay of yeast cells expressing indicated proteins kept in darkness (D) or irradiated with blue light (B50, 50 μmol m⁻² s⁻¹) for indicated durations. (FIG. 5C) Fluorescence images showing the formation of CRY2-GFP nuclear bodies in the protoplasts of WT, BIC1-OX line or […]. The protoplasts transformed with CRY2-GFP construct were kept in darkness overnight and then irradiated with blue light (20 μmol m⁻² s⁻¹) for the time indicated. […] Each sample contains at least 50 protoplast. Means and SD (n=3) are shown. (FIG. 5E) BiFC analysis of the blue-light-induced formation of CRY2 nuclear bodies in protoplasts of WT, BIC1-OX line or BIC2-OX line. The protoplasts transformed with cYFP-CRY2 and nYFP-CRY2 constructs were kept in darkness overnight and then irradiated with blue light (20 μmol m⁻² s⁻¹) for the time indicated. […] Each sample contains at least 50 protoplast. Means and SD (n=3) are shown. […]

In assay [2] the target is T2, cCFP-CRY2 (C terminus of cyan fluorescent protein fused to CRY2) (Arabidopsis, UniProt Q96524 1-612).
T2 construct: BiFC construct in Arabidopsis protoplasts; not shown: C terminus of cyan fluorescent protein
The assay is described as follows: BiFC in Arabidopsis protoplasts.

B1: Arabidopsis CIB1 (cryptochrome-interacting basic-helix-loop-helix) protein (other)
chain: MNGAIGGDLLLNFPDMSVLERQRAHLKYLNPTFDSPLAGFFADSSMITGGEMDSYLSTAGLNLPMMYGETTVEGDSRLSISPETTLGTGNFKKRKFDTETKDCNEKKKKMTMNRDDLVEEGEEEKSKITEQNNGSTKSIKKMKHKAKKEENNFSNDSSKVTKELEKTDYIHVRARRGQATDSHSIAERVRREKISERMKFLQDLVPGCDKITGKAGMLDEIINYVQSLQRQIEFLSMKLAIVNPRPDFDMDDIFAKEVASTPMTVVPSPEMVLSGYSHEMVHSGYSSEMVNSGYLHVNPMQQVNTSSDPLSCFNNGEAPSMWDSHVQNLYGNLGV
notes: also called AT4G34530
Consider B1, for which the binding result in assay [1] was “binds”.

B2: nYFP-CRY2 (N terminus of YFP fused to CRY2) (other)
chain: MKMDKKTIVWFRRDLRIEDNPALAAAAHEGSVFPVFIWCPEEEGQFYPGRASRWWMKQSLAHLSQSLKALGSDLTLIKTHNTISAILDCIRVTGATKVVFNHLYDPVSLVRDHTVKEKLVERGISVQSYNGDLLYEPWEIYCEKGKPFTSFNSYWKKCLDMSIESVMLPPPWRLMPITAAAEAIWACSIEELGLENEAEKPSNALLTRAWSPGWSNADKLLNEFIEKQLIDYAKNSKKVVGNSTSLLSPYLHFGEISVRHVFQCARMKQIIWARDKNSEGEESADLFLRGIGLREYSRYICFNFPFTHEQSLLSHLRFFPWDADVDKFKAWRQGRTGYPLVDAGMRELWATGWMHNRIRVIVSSFAVKFLLLPWKWGMKYFWDTLLDADLECDILGWQYISGSIPDGHELDRLDNPALQGAKYDPEGEYIRQWLPELARLPTEWIHHPWDAPLTVLKASGVELGTNYAKPIVDIDTARELLAKAISRTREAQIMIGAAPDEIVADSFEALGANTIKEPGLCPSVSSNDQQVPSAVRYNGSKRVKPEEEEERDMKKSRGFDERELFSTAESSSSSSVFFVSQSCSLASEGKNLEGIQDSSDQITTSLGKNGCK
notes: BiFC construct in Arabidopsis protoplasts; not shown: N terminus of YFP
Consider B2, for which, in assay [2], the binding result is recorded as “binds”.

The values above are taken from patent US20190300875A1 (University of California, published 2019).
